Experimental data reported in the supplement of paper PMC9170038.

Test system: MS2 coat protein
Assay: apparent KD of MS2 coat protein; designed switch direction (-1 OFF switch, 1 ON switch): -1; higher = weaker reporter binding
Summary of the method: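 Apparent KD, taken as the median over clusters for each design, was obtained by curve-fitting normalised cluster fluorescence. Designed RNA switches had been transcribed on Illumina chips by stalled E. coli RNA polymerase and titrated with SNAP-549-labelled MS2 coat protein, doubling from 0.7 or 1.5 nM to 3 µM.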

[1] = input ligand: microRNA oligo, concentration not stated

Row | Sequence | apparent KD of MS2 coat protein (input ligand: FMN 200 uM) | apparent KD of MS2 coat protein [1] | apparent KD of MS2 coat protein (input ligand: none)
1 | ACAGUUCUGCAAGGAUAUCGUCCUAGUUUGUUUCGAGAAGGUGCUUUUGUUUUUUCCUUUUGUUUACAUGAGGAUCACCCAUGU [JR_ExcNG1_Sub051] (Eterna round: R96, puzzle: Exclusion NG 1) | 15.6 nM | 16.6 nM | 18.9 nM
2 | ACAUCCUUAGUAAGGAUAUCGUCCGCCGAGGCGGGCGAGAAGGUACAUGAGGAUCACCCAUGUAUGCAGCAGAU [Eternabot (L2) Solution 59] (Eterna round: R97, puzzle: Brourd's mod of Exclusion 4) | 19.1 nM | – | 14 nM
3 | ACAUGAGGAUCACCCAUGUAAACAUAAUGGCUCAUGUAGAGUCAGGAUAUGCGUGGCGAACACGCGCAGAAGGGACAAGACUGG [Deportation 24 - Jieux - Exclusion NG 3] (Eterna round: R96, puzzle: Exclusion NG 3) | 32.4 nM | 21 nM | 31 nM
4 | ACAUGAGGAUCACCCAUGUAAUGAAGGGUACUAUACUAAACGUAGGAUAUCGAUGUAAGAUUGUACGAGAAGGACGAUUGCCUU [JR_ExcNG3_Sub051] (Eterna round: R96, puzzle: Exclusion NG 3) | – | 29.3 nM | –
5 | ACAUGAGGAUCACCCAUGUCAGGCGGGUCCACUCCGGCUGUUGAGGAUAUAGCCCGGUAUCCGCGCUAGAAGGUGAGGGCCGGC [Aenatbe mod 25] (Eterna round: R96, puzzle: Exclusion NG 3) | 23.1 nM | 18.4 nM | 24.1 nM
6 | ACAUGAGGAUCACCCAUGUCAGGUGGGUCCUCUCCGGCUGUUGAGGAUAUAGUCCGGUAUCCGCGCUAGAAGGUGAGGGCUGGC [Aenatbe mod 16] (Eterna round: R96, puzzle: Exclusion NG 3) | 42.8 nM | 23.8 nM | 38.4 nM
7 | ACAUGAGGAUCACCCAUGUCAGGUUGGUCCUCUCCGGCUGUUGAGGAUAUAGUCCGGUAUCCGCGCUAGAAGGUGAGGGCUGGC [Aenatbe mod 15] (Eterna round: R96, puzzle: Exclusion NG 3) | 21.4 nM | 17.2 nM | 21.3 nM
8 | ACAUGAGGAUCACCCAUGUCCGGCUGGUCCGUCUCGGCUGUCGAGGAUAUAGCACGGUAUCCGCGCUAGAAGGCGGGAGCCGGA [Aenatbe mod 85] (Eterna round: R96, puzzle: Exclusion NG 3) | 72.4 nM | 26 nM | 39.6 nM
9 | ACAUGAGGAUCACCCAUGUCUGGCUGGUCCGCUCCGGCUGUUGAGGAUAUAGUUCGGUGUUCGCGCUAGAAGGUGAGGGCUGGC [Aenatbe mod 36] (Eterna round: R96, puzzle: Exclusion NG 3) | 27.7 nM | 24.4 nM | 38.8 nM
10 | ACAUGAGGAUCACCCAUGUCUGGCUGGUCUGUUCCGGCUGUUGAGGAUAUAGUCCGGUGUUCGCGCUAGAAGGUGAGGGCUGGA [Aenatbe mod 43] (Eterna round: R96, puzzle: Exclusion NG 3) | 54.5 nM | 32.9 nM | 57 nM
11 | ACAUGAGGAUCACCCAUGUGAAAACAAUGGCUGACUUUGAGAUAGGAUAUAGGUGCAUAUCAAACCUAGAAGGGUCAUUACUGG [Deportation 91 - Jieux - Exclusion NG 3] (Eterna round: R96, puzzle: Exclusion NG 3) | 46.6 nM | 35.3 nM | 46.5 nM
12 | ACAUGAGGAUCACCCAUGUGAACAUGAUGGCUGAUGUAGAGCUAGGAUAUGAGUGAAUAUCUAUCUCAGAAGGAGCUUGACUGG [Deportation 47 - Jieux - Exclusion NG 3] (Eterna round: R96, puzzle: Exclusion NG 3) | 34.1 nM | 14.1 nM | 23.2 nM
